Measurements from paper PMC11302882, “tRF-27 competitively Binds to G3BPs and Activates MTORC1 to Enhance HER2 Positive Breast Cancer Trastuzumab Tolerance”.

Columns and labels:
[1] = target: T1, HA-G3BP2 lacking NTF2 domain (UniProt Q9UN86 1-10+134-482, internal_change); experiment: EMSA; not stated; BeyoMag Chemiluminescent RNA EMSA Kit per manufacturer; biotin-RNA pull-down from cell lysates; conditions: protein: recombinant; tags: N-terminal HA; label: biotin; predicted loop
T1 sequence: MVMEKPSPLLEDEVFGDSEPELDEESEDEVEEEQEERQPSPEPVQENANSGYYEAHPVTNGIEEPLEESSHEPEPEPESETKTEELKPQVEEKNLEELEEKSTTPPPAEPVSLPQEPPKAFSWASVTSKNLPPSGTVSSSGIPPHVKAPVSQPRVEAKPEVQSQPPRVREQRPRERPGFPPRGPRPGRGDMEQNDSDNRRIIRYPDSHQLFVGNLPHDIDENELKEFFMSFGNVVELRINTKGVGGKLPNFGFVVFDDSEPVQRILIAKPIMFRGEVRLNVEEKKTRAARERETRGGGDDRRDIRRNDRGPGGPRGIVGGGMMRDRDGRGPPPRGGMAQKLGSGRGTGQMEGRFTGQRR

HA-G3BP2 full length = target: T2, HA-G3BP2 full length (UniProt Q9UN86 1-482); experiment: as above; conditions: protein: recombinant; tags: N-terminal HA; chain copies: 2; label: biotin; predicted loop
T2 sequence: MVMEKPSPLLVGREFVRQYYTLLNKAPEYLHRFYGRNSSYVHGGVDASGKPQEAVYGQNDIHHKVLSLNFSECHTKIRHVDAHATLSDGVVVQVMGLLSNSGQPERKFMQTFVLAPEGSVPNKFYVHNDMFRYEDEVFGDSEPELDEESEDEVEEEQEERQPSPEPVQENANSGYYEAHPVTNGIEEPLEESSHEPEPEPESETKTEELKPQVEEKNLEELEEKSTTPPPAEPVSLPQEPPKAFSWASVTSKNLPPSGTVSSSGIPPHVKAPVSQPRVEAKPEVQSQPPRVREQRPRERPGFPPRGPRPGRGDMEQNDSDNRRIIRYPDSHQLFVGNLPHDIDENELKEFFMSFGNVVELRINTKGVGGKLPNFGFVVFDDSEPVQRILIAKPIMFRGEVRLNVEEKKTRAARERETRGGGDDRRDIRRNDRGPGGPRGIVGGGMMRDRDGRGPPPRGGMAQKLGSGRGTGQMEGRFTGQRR

B1: tRF-27 (tRF-27-ZDXPHO53KSN) (ssRNA)
RNA: UUGACUGCAGAUCAAGAGGUCCCCGGU
B1: no binding [1]; binds (HA-G3BP2 full length).
